According to US20240174758A1 (AstraZeneca / MedImmune, published 2024):

T1: human CCR9B (human, UniProt P51686 13-369)
T1 construct: Overexpressed on HEK cells; also called Hu B HEK; hCCR9 isoform B
T1 sequence: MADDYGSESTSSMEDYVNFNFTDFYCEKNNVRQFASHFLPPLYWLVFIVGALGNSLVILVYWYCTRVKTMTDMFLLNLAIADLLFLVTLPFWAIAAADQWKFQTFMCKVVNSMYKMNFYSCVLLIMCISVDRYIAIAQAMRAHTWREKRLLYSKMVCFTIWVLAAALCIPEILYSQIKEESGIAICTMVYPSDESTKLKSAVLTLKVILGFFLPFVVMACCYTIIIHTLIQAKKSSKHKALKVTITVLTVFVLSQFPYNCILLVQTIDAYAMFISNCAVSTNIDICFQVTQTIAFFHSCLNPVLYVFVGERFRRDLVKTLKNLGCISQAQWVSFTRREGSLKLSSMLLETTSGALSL

T2: rat CCR9 (rat, UniProt Q8CH33 1-369)
T2 construct: Overexpressed on HEK cells; also called Rat HEK
T2 sequence: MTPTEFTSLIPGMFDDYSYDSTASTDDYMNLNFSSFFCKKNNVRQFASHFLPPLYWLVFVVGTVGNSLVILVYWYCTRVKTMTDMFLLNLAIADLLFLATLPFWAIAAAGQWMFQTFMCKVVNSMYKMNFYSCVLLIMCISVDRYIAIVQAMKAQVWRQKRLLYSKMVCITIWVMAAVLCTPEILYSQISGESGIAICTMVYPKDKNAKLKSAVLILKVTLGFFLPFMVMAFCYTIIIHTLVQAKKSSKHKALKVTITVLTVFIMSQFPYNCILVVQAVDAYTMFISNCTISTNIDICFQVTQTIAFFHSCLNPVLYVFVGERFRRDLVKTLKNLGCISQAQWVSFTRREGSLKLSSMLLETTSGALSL

T3: mouse CCR9 (mouse, UniProt Q9WUT7 1-369)
T3 construct: whole, on cells; Overexpressed on HEK cells; also called mCCR9; Mouse HEK
T3 sequence (looked up): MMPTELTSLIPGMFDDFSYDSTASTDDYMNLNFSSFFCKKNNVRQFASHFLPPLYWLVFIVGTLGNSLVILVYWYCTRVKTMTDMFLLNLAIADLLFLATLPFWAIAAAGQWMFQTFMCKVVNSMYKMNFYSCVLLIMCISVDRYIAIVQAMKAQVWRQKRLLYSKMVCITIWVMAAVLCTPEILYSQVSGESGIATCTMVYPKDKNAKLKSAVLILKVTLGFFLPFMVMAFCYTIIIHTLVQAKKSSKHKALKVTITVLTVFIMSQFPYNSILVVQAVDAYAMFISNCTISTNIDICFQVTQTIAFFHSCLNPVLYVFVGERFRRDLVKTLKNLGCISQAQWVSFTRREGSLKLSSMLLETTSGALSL

T4: cynomolgus CCR9 (cynomolgus, UniProt Q0H741 1-369)
T4 sequence: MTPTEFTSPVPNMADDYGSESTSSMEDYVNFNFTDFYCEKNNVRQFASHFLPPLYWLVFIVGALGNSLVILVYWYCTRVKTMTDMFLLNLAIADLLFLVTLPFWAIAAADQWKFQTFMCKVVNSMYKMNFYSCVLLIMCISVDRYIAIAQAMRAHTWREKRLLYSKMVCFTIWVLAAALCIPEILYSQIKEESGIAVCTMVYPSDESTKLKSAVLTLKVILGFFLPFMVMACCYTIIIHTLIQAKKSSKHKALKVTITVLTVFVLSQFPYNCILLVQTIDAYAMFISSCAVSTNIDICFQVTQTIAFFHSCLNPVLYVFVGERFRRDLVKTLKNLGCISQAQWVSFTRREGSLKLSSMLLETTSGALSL

T5: human CCR9A (human, UniProt P51686 1-369)
T5 construct: Overexpressed on HEK cells; also called Hu A HEK; hCCR9 isoform A
T5 sequence: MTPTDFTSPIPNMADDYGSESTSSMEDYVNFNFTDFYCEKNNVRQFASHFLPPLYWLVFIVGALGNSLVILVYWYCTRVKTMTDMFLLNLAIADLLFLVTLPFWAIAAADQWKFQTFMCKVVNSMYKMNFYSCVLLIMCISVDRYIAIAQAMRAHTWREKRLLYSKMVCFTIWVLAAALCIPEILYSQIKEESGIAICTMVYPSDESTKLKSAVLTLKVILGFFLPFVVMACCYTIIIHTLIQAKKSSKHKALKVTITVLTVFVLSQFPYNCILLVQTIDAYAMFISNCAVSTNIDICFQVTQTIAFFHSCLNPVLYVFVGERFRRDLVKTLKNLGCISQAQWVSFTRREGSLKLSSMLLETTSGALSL

B1: Humanised AB1020243 (AB1020243-fgl) (antibody, V domains shown)
VH: QVQLVQSGAEVKKPGASVKVSCKASGYTFTSYWMHWVRQAPGQGLEWIGVIYPGNSDTRYNQKFKGRVTITRDTSASTAYMELSSLRSEDTAVYYCTRDYYSNYVYYYAMDYWGQGTTVTVSS
VL: DIVMTQTPLSLPVTPGEPASISCRSSQSLVHSNGNTYLHWYLQKPGQSPQLLIYKVSNRFSGVPDRFSGSGSGTDFTLKISRVEAEDVGVYYCSQSTHVPWTFGQGTKLEIK
notes: For LigandTracer it was labelled with DyLight 650 on an engineered cysteine in CH2; also called humanised AB1020243 afuc
B2: AB243LO0331 (antibody, V domains shown)
VH: QVQLVQSGAEVKKPGASVKVSCKASGYTFTSYWMHWVRQAPGQGLEWIGVIYPGNSDTRYNQKFKGRVTITRDTSASTAYMELSSLRSEDTAVYYCTRDYYSNYVYYYAMDYWGQGTTVTVSS
VL: DIVMTQTPLSLPVTPGEPASISCRSSQSLVHSNTNTYLHWYLQKPGQSPQLLIYKVSNRFSGVPDRFSGSGSGTDFTLKISRVEAEDVGVYYCSQSTHVPWTFGQGTKLEIK
notes: CDR-optimised humanised antibody, a-fuc huIgG1 (afucosylated in all experiments); The constant regions are not expressly tied to it
B3: AB243LO0326 (antibody, V domains shown)
VH: QVQLVQSGAEVKKPGASVKVSCKASGYTFTSYWMHWVRQAPGQGLEWIGVIYPGNSDTRYNQKFKGRVTITRDTSASTAYMELSSLRSEDTAVYYCTRDYYSNYVYYYAMDYWGQGTTVTVSS
VL: DIVMTQTPLSLPVTPGEPASISCRSSQSLVHPNRNTYLHWYLQKPGQSPQLLIYKVSNRFSGVPDRFSGSGSGTDFTLKISRVEAEDVGVYYCSQSTHVPWTFGQGTKLEIK
notes: CDR-optimised humanised antibody, a-fuc huIgG1 (afucosylated in all experiments); For LigandTracer it was labelled with DyLight 650 on an engineered cysteine in CH2; also called CDR-optimised AB1020243

Experiments:
[1] = target: human CCR9 (isoform not given) (human) (UniProt P51686); assay: cell-based or functional assay
[2] = target: CCR9 (species and isoform not stated) (UniProt P51686)
[3] = target: CCR9 (species and isoform not stated) (UniProt P51686); assay: LigandTracer on CCR9-expressing CHO K1 cells, DyLight 650 labelled IgG, bivalent (1:2) fit, about 22 C
human CCR9B [4] = target: T1, human CCR9B; assay: binding to HEK cells expressing human CCR9B (huCCR9B), FL1 counts against Log M, methods of Example 4
rat CCR9 = target: T2, rat CCR9; assay: cell binding by the methods of Example 4
mouse CCR9 = target: T3, mouse CCR9; assay: cell binding by the methods of Example 4
[5] = target: human CCR9 (isoform not given) (human), P51686
cynomolgus CCR9 = target: T4, cynomolgus CCR9; assay: cell-based or functional assay
human CCR9A = target: T5, human CCR9A; assay: binding to cells expressing human CCR9A, FL1 counts against Log M, methods of Example 4
[6] = target: CCR9 (species and isoform not stated) (UniProt P51686); assay: cell-based or functional assay
human CCR9B [7] = target: T1, human CCR9B; assay: binding to cells expressing human CCR9B, FL1 counts against Log M, methods of Example 4
[8] = target: human CCR9 (isoform not given) (human), P51686; assay: cell-based or functional assay

Binder	Potency, NK cell activation assay (NK-92 MI CD16a NFAT luciferase, in vitro ADCC bioassay) [1] [nM]	EC50 of a CPS dose-response curve (potency; luminescence counts per second as in the NK cell activation assay of Example 4); target cells not named on the sheet (M (axis Log M; no unit in the table)) [2]	koff [3] [s⁻¹]	binding result (human CCR9B [4])	binding result (rat CCR9)	binding result (mouse CCR9)	IC50 (read off the curve) [5] [nM]	EC50, killing of cynomolgus CD4+CCR9+ PBMC (cynomolgus CCR9) [nM]	binding result (human CCR9A)	CCL25 induced CCR9 internalisation (FACS) [6] [nM]	binding result (human CCR9B [7])	Kd [3] [nM]	EC50, killing of PBMC [8] [nM]	EC50, killing of human CD4+CCR9+ PBMC [8] [nM]
B1	0.8	7.3e-09	4.3e-05	binds										
B2					no binding	no binding	0.7							
B3					no binding	no binding	0.7	0.03	binds	2	binds	0.09	0.004	0.004 to 0.005
